Here are results for two molecules from publication PMC4596477, “Interaction of Myosin Phosphatase Target Subunit (MYPT1) with Myosin Phosphatase-RhoA Interacting Protein (MRIP): A Role of Glutamic Acids in the Interaction” (PLoS ONE, 2015).

For one series, the system named is CCLR. The series can be described thus: AUC interaction of MRIP peptides with MYPT1 peptide CCLR (residues 924–1030). It counts as binding. Conditions: equimolar mixtures (MRIP^545-878 14 μM each; MRIP^724-878 30 μM each; MRIP^724-837 67 μM each) and 3-, 9-fold dilutions, pH 7.4, 100 mM KCl, 20°C. The procedure: AUC was performed to examine the interactions of MRIP^545-878, MRIP^724-878, or MRIP^724-837 individually with the MYPT1 peptide (residues 924–1030) containing a putative coiled coil domain (CC) and the leucine repeat region (LR), designated as CCLR.
Fig 3 All MRIP peptides bind to the C-terminal region of MYPT1, CCLR (residues 924–1030). Concentration-normalized time derivative g(s*) graphs of the MRIP peptides by themselves and in equimolar mixtures: Lines, CCLR (30 μM); +, individual MRIP peptides by themselves (MRIP^545-878, 14 μM; MRIP^724-878, 50 μM; MRIP^724-837, 67 μM); black filled-in circles, original equimolar mixtures (MRIP^545-878, 14 μM each; MRIP^724-878, 30 μM each; MRIP^724-837, 67 μM each); open circles, 3-fold dilutions; gray filled-in circles, 9-fold dilutions.
The cDNA fragment encoding MRIP peptides were amplified using a full-length MRIP cDNA as a template with the following primer pairs: MRIP^545-878, 5’-[…]/5’[…]; MRIP^724-878, 5’-[…]/5’-[…]; MRIP^724-837, 5’-[…]/5’-[…]. The PCR products were ligated into pCR2.1-TOPO using the TA cloning system and sequenced in both directions. The IMPACT™ (Intein Mediated Purification with an Affinity Chitin-binding Tag) Kit (New England BioLabs) was used to express peptides in bacteria to obtain tag-free peptides. The PCR amplicon encoding MRIP peptides were fused in frame to the chitin binding domain of pTYB12 vector utilizing the NdeI/EcoRI restriction sites. The expression vectors for the MYPT1 peptides, CCLR (residues 924–1030), CC (residues 924–990), and LR (residues 991–1030) were constructed as described: In the reference literature, CCLR and LR were named CCLZ and LZ, respectively. Recombinant peptides were produced in Escherichia coli strain BL21 (DE3) and purified using chitin beads according to the manufacturer's protocol. For further purification, the eluent from chitin beads was loaded on a Vydac C8 reversed phase column and subjected to HPLC using an acetonitrile gradient. Purity and identity of the peptides were confirmed by polyacrylamide gel electrophoresis (PAGE) and mass spectrometry. […]

Series [1] in a line: AUC sedimentation velocity of MRIP peptides alone (molar mass, sedimentation coefficient, oligomeric state). Type of series: physicochemical. An excerpt: The RMSD of the fit was 0.008.
(§1) The cDNA fragment encoding MRIP peptides were amplified using a full-length MRIP cDNA as a template with the following primer pairs: MRIP^545-878, 5’-[…]/5’[…]; MRIP^724-878, 5’-[…]/5’-[…]; MRIP^724-837, 5’-[…]/5’-[…]. The PCR products were ligated into pCR2.1-TOPO using the TA cloning system and sequenced in both directions. The IMPACT™ (Intein Mediated Purification with an Affinity Chitin-binding Tag) Kit (New England BioLabs) was used to express peptides in bacteria to obtain tag-free peptides. The PCR amplicon encoding MRIP peptides were fused in frame to the chitin binding domain of pTYB12 vector utilizing the NdeI/EcoRI restriction sites. The expression vectors for the MYPT1 peptides, CCLR (residues 924–1030), CC (residues 924–990), and LR (residues 991–1030) were constructed as described: In the reference literature, CCLR and LR were named CCLZ and LZ, respectively. Recombinant peptides were produced in Escherichia coli strain BL21 (DE3) and purified using chitin beads according to the manufacturer's protocol. For further purification, the eluent from chitin beads was loaded on a Vydac C8 reversed phase column and subjected to HPLC using an acetonitrile gradient. Purity and identity of the peptides were confirmed by polyacrylamide gel electrophoresis (PAGE) and mass spectrometry. For the mutagenesis study of LR, the wild-type and mutant LR peptides were synthesized, purified by reverse-phase HPLC, and lyophilized to dryness at the peptide core in Boston Biomedical Research Institute.
Sedimentation velocity experiments were done on a Beckman Instruments Optima XL-I analytical ultracentrifuge equipped with Rayleigh optics. The cells were equipped with sapphire windows and 12 mm charcoal-filled Epon centerpieces. Apparent sedimentation coefficient distribution patterns were computed by the time derivative method. Peptides were dialyzed against 50 mM potassium phosphate buffer (pH 7.4) containing 100 mM KCl, and 1 mM DTT at 4°C overnight and then subjected to AUC at 50,000 rpm and 20°C. Molar mass was computed from sedimentation velocity profiles using SedAnal, which uses a nonlinear least-squares curve fitting algorithm to fit data to solutions of the differential equation (the Lamm equation) describing sedimentation. Fits were performed on time difference data to remove the time-independent systematic baseline components. Values of s and D produced by the fitting procedure were substituted into the Svedberg equation to obtain the molar mass of the protein, M: M=RT/(1−ν¯ρ)s20,wo/D20,wo where ρ is the density of the buffer and ν¯ is the partial specific volume of the protein. Sednterp was employed to compute values of ρ and ν¯ from the amino acid sequence.

Series [2] is described as follows: AUC of MYPT1 peptides alone (concentration dependence, self-association). Type of series: physicochemical. Conditions: CC alone, 107 μM and 3-, 9-fold dilutions, MRIP^724-878 alone, 50 μM and 3-, pH 7.4, 20°C. An excerpt: (§2) To determine the minimal MRIP-binding region of MYPT1, AUC was employed to examine interactions between sub-domains of CCLR, CC (residues 924–990) and LR (residues 991–1030) with MRIP^724-878 (Fig 4A). CC is the putative coiled coil domain and LR contains 16 upstream amino acid residues (residues 991–1006) in addition to the leucine repeat (residues 1007–1028). MRIP^724-878 was chosen because of its good fit to a single component, single-species model. […] Global fitting of the mixture to a two-component model produced a good fit and the RMSD of the fit was 0.010 (Fig 4B; Fitting of CC).
Fig 4 LR contains sufficient residues for the MYPT1/MRIP interaction. […] CC; Concentration-normalized time derivative g(s*) plots of CC, MRIP^724-878, and equimolar mixtures of the two peptides: Black filled-in circles, an original CC alone (107 μM); dark gray filled-in circles, a 3-fold dilution of CC alone; light gray filled-in circles, a 9-fold dilution of CC alone; black filled-in triangles, an original MRIP^724-878 alone (50 μM); dark gray filled-in triangles, a 3-fold dilution of MRIP^724-878 alone; light gray filled-in triangles, a 9-fold dilution of MRIP^724-878 alone; a black line, an original equimolar mixture of MRIP^724-878/CC (50 μM each): a dark gray line, a 3-fold dilution of the mixture; a light gray line, a 9-fold dilution of the mixture. […]

The target of series [3] is T1, MRIP^724-878 (Homo sapiens, UniProt Q6WCQ1).
T1 construct: MRIP^724-878 (residues 724–878; CC2-CC4); made in house; host or cells: Escherichia coli BL21 (DE3)
T1 sequence (Q6WCQ1 725-879): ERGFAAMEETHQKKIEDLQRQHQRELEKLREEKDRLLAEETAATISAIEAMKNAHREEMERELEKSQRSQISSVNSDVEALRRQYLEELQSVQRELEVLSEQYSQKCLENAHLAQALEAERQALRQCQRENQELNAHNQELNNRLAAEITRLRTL
The series can be described thus: SPR, MYPT1 peptides as analytes over immobilized MRIP^724-878. It counts as binding. Conditions: 25°C, pH 7.4, CCLR 167–1 μM, CC 318–10 μM, LR 569–5 μM. Here is the method:
To corroborate the results from AUC studies, SPR was employed. […] Equilibrium K d values were obtained by nonlinear curve fitting of reference-corrected curves using the steady-state affinity fitting model in BIAevaluation version 4–1.
Analytes CCLR, CC, LR: Interactions between analytes, CCLR (167–1 μM), CC (318–10 μM), and LR (569–5 μM) with immobilized ligand, MRIP^724-878 (1800 RU) after correction for nonspecific binding using G-actin (2230 RU). Shown is a representative out of 9 experiments for CCLR and 8 for LR in each, duplicates or triplicates. Insets show fittings of steady-state affinity. Ligand LR: Interaction of analyte, MRIP^724-878 (85.6–0.7 μM) with immobilized ligand, LR (244.8 RU) after correction for nonspecific binding using a nebulin-derived peptide (600 RU). Shown is a representative out of 6 experiments.
Binding analyses of SPR were conducted on a Biacore 3000 (GE Healthcare) at 25°C. Sensor chips and reagents for immobilization (1-ethyl-3-(3-dimethylaminopropyl) carbodiimide, N-hydroxyl-succinimide, and ethanolamine) were purchased from GE Healthcare. Peptides were immobilized onto a CM5 sensor chip at 232–5841 resonance units (RU) using amine coupling. Binding studies were done using two-fold serial dilutions of the peptides in 50 mM potassium phosphate buffer (pH 7.4) containing 100 mM KCl. […]
In general terms: SPR reads the build-up and loss of mass on a sensor chip optically.

The target in series [4] is T1, MRIP^724-878. Kind of series: AUC interaction of MYPT1 peptides (CC, LR and LR mutants) with MRIP^724-878. Conditions: equimolar mixture (CC: 50 μM each) and dilutions, pH 7.4, 100 mM KCl, 20°C. It counts as binding.
Description: as §2
The coiled coil is a common protein-protein interaction domain. The MRIP peptides in this study have putative coiled coil domains and are α-helical. In contrast, the MYPT1 peptide, LR is not α-helical even though it contains the leucine repeat. Thus, we hypothesized that charged residues of MYPT1 might participate in the MYPT1/MRIP interaction with its leucine residues. We generated various LR peptides representing mutations in charged residues (Fig 6A) and examined their bindings to MRIP^724-878 (Fig 6B).
Fig 6 Glutamic acids within LR enhance the MRIP-binding affinity. (A) Amino acid sequences of the wild-type LR (WT-LR) and mutant LR peptides. Charged residues are in bold, the leucine repeat is in Italic, and substitution mutations are underlined. (B) Time derivative s*lg(s*) graphs: Line, MRIP^724-878 alone (50 μM); filled-in circles, original mixture of MRIP^724-878/each mutant LR peptide (50 μM each except for R992D/R993D and E996K whose mixtures consisted of excess amount of the mutant LR peptides); open circles, a three-fold dilution of the original mixture. The molar mass of the complex differs slightly from that of MRIP^724-878 dimer (37.9 kDa vs 37.4 kDa), and thus the shift in the main peak position is not easily discernable in many cases.
as §1
Sedimentation velocity experiments were done on a Beckman Instruments Optima XL-I analytical ultracentrifuge equipped with Rayleigh optics. The cells were equipped with sapphire windows and 12 mm charcoal-filled Epon centerpieces. Apparent sedimentation coefficient distribution patterns were computed by the time derivative method. Peptides were dialyzed against 50 mM potassium phosphate buffer (pH 7.4) containing 100 mM KCl, and 1 mM DTT at 4°C overnight and then subjected to AUC at 50,000 rpm and 20°C. […]

B1: MRIP^724-837: recombinant tag-free MRIP peptide, residues 724–837; CC2-CC3 (protein)
chain: CERGFAAMEETHQKKIEDLQRQHQRELEKLREEKDRLLAEETAATISAIEAMKNAHREEMERELEKSQRSQISSVNSDVEALRRQYLEELQSVQRELEVLSEQYSQKCLENAHL
modifications: left off: chitin-binding domain (IMPACT kit, pTYB12), N-terminal, cleaved
notes: recombinant tag-free MRIP peptide, residues 724–837; CC2-CC3
Take B1: in the series with CCLR, the “binding to CCLR (shift in g(s*) curves)” value was “bind to CCLR”. Moreover, the molar mass in series [1] (AUC sedimentation velocity, SedAnal global fit to monomer-dimer reaction, 7.5–67.1 μM, 50 mM potassium phosphate pH 7.4, 100 mM KCl, 1 mM DTT, 20°C, CL 0.95) is reported as 13.9±0.2 kDa. For the same molecule, in series [1] (AUC sedimentation velocity, pH 7.4, 100 mM KCl, 20°C), the “oligomeric state in solution” value is listed as “a mixture of monomer-dimer”. In series [1] (AUC, monomer-dimer model, 7.5–67.1 μM, pH 7.4, 100 mM KCl, 20°C, CL 0.95, min, 1.23, max, 1.31), the “sedimentation coefficient, monomer” value is 1.29 S. Further, the “sedimentation coefficient, dimer” value in series [1] (AUC, monomer-dimer model, 7.5–67.1 μM, pH 7.4, 100 mM KCl, 20°C, CL 0.95, min, 1.88, max, 1.91) was found to be 1.90 S. Also, the “concentration dependence of g(s*) curves” value in series [1] (AUC, MRIP^545-878 1.5–13.6 μM, MRIP^724-878 4.7–42.3 μM, MRIP^724-837 7.5–67.1 μM, pH 7.4, 20°C) was “concentration dependence and a reversible interaction”.

B2: CC: sub-domain of CCLR, residues 924–990; the putative coiled coil domain (protein, UniProt Q6WCQ1 924-990, looked up, fragment)
chain: KDELQTALRDKKYASDKYKDIYTELSIAKAKADCDISRLKEQLKAATEALGEKSPDSATVSGYDIMK
With B2, the “concentration dependence of g(s*) curves” value in series [2] was “superimposable, indicating concentration-independence”. For the same molecule, the “complex formation with immobilized MRIP^724-878” value in the series with MRIP^724-878 [3] is given as “did not”. In the series with MRIP^724-878 [4], the “binding to MRIP^724-878 (g(s*) curves)” value was “no binding”.
